# Data reported in article PMC6220978, “Induced conformational changes activate the peptidoglycan synthase PBP1B” (Molecular Microbiology, 2018).
# Changes are numbered by the printed parent chain.
# T1: PBP1B P162C/I644C (E. coli, UniProt P02919 46-844, P162C | I644C)
# T1 construct: PBP1B, E. coli, residues 46-844, made by mutagenesis of pDML924; Disulphide bridge between C162 and C644 (no free thiol groups detected); reduced in the SPR assay with 2 mM TCEP; source: E. coli BL21(DE3), purified (membrane extract, HisTrap, thrombin, HiTrap SP ion exchange)
# T1 sequence (looked up): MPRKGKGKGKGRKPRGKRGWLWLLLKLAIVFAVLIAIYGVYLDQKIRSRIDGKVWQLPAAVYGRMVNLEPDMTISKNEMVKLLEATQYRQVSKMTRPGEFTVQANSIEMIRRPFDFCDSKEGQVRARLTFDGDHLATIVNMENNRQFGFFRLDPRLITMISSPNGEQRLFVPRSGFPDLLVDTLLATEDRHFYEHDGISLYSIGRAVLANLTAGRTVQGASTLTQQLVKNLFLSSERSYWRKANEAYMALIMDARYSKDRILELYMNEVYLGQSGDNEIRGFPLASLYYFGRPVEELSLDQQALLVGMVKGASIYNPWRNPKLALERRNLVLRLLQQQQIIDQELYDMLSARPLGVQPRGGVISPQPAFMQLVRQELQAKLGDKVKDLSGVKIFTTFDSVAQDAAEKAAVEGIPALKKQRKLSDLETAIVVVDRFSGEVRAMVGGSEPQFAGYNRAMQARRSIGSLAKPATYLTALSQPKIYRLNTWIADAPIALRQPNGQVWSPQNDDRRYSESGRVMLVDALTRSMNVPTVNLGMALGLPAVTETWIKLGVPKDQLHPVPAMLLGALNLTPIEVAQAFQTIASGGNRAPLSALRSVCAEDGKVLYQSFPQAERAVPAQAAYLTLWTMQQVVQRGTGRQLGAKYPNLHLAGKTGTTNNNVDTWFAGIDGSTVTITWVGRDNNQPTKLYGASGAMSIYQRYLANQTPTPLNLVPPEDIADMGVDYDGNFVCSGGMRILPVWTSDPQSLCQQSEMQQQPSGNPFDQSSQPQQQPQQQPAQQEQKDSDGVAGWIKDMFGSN
# T2: PBP1B R109G (E. coli, UniProt P02919 46-844, R109G)
# T2 construct: PBP1B, E. coli, residues 46-844, made by mutagenesis of pDML924; source: E. coli BL21(DE3), purified (membrane extract, HisTrap, thrombin, HiTrap SP ion exchange)
# T2 sequence (looked up): T1 sequence (looked up) with R64G, C117P, C599I
# T3: PBP1B R157A (E. coli, UniProt P02919 46-844, R157A)
# T3 construct: PBP1B, E. coli, residues 46-844, made by mutagenesis of pDML924; source: E. coli BL21(DE3), purified (membrane extract, HisTrap, thrombin, HiTrap SP ion exchange)
# T3 sequence (looked up): T1 sequence (looked up) with R112A, C117P, C599I
# B1: LpoB (natural protein, E. coli)
# chain: VGQREPAPVEEVKPAPEQPAEPQQPVPTVPSVPTIPQQPGPIEHEDQTAPPAPHIRHYDWNGAMQPMVSKMLGADGVTAGSVLLVDSVNNRTNGSLNAAEATETLRNALANNGKFTLVSAQQLSMAKQQLGLSPQDSLGTRSKAIGIARNVGAHYVLYSSASGNVNAPTLQMQLMLVQTGEIIWSGKGAVSQQ
# notes: LpoB, E. coli; also called lipoprotein LpoB; source: E. coli BL21(DE3), purified (HisTrap, Superdex 200), as in Egan et al. 2014
# What was measured:
# Test in all cases: SPR; PBP1B versions immobilised to the chip surface; LpoB injected from 19.5 nM to 10 μM; apparent KD by non-linear regression, at least three independent experiments
# Details in all cases: both partners purified
# PBP1B P162C/I644C = target: T1, PBP1B P162C/I644C
# PBP1B R109G = target: T2, PBP1B R109G
# PBP1B R157A = target: T3, PBP1B R157A
binder,measurement,setting,value
B1,Kd,PBP1B P162C/I644C,213 nM
same,Kd,PBP1B R109G,3090 nM
same,Kd,PBP1B R157A,505 nM
